From US20180086849A1 (Hoffmann-La Roche, published 2018)

Experiments:
[1] = molecular target: T1, Human EGFR (immobilized on CM5 chip) (human, UniProt P00533 25-645, limits assumed); experiment: SPR (Biacore T100): construct captured at 200 nM on immobilised human EGFR, then CD3 fusion at 2000 nM
T1 construct: also called tumor antigen

[2] = molecular target: human MCSP (Melanoma-associated Chondroitin Sulfate Proteoglycan) on cells (human, UniProt Q6UVK1 30-2322); experiment: cell-based or functional assay
Her2 on KPL-4 cells = Her2 on KPL-4 cells (human (human cell line KPL-4), UniProt P04626 23-1255); experiment: cell-based or functional assay

human MCSP (Melanoma-associated Chondroitin Sulfate Proteoglycan) on cells, sequence (Q6UVK1 30-2322): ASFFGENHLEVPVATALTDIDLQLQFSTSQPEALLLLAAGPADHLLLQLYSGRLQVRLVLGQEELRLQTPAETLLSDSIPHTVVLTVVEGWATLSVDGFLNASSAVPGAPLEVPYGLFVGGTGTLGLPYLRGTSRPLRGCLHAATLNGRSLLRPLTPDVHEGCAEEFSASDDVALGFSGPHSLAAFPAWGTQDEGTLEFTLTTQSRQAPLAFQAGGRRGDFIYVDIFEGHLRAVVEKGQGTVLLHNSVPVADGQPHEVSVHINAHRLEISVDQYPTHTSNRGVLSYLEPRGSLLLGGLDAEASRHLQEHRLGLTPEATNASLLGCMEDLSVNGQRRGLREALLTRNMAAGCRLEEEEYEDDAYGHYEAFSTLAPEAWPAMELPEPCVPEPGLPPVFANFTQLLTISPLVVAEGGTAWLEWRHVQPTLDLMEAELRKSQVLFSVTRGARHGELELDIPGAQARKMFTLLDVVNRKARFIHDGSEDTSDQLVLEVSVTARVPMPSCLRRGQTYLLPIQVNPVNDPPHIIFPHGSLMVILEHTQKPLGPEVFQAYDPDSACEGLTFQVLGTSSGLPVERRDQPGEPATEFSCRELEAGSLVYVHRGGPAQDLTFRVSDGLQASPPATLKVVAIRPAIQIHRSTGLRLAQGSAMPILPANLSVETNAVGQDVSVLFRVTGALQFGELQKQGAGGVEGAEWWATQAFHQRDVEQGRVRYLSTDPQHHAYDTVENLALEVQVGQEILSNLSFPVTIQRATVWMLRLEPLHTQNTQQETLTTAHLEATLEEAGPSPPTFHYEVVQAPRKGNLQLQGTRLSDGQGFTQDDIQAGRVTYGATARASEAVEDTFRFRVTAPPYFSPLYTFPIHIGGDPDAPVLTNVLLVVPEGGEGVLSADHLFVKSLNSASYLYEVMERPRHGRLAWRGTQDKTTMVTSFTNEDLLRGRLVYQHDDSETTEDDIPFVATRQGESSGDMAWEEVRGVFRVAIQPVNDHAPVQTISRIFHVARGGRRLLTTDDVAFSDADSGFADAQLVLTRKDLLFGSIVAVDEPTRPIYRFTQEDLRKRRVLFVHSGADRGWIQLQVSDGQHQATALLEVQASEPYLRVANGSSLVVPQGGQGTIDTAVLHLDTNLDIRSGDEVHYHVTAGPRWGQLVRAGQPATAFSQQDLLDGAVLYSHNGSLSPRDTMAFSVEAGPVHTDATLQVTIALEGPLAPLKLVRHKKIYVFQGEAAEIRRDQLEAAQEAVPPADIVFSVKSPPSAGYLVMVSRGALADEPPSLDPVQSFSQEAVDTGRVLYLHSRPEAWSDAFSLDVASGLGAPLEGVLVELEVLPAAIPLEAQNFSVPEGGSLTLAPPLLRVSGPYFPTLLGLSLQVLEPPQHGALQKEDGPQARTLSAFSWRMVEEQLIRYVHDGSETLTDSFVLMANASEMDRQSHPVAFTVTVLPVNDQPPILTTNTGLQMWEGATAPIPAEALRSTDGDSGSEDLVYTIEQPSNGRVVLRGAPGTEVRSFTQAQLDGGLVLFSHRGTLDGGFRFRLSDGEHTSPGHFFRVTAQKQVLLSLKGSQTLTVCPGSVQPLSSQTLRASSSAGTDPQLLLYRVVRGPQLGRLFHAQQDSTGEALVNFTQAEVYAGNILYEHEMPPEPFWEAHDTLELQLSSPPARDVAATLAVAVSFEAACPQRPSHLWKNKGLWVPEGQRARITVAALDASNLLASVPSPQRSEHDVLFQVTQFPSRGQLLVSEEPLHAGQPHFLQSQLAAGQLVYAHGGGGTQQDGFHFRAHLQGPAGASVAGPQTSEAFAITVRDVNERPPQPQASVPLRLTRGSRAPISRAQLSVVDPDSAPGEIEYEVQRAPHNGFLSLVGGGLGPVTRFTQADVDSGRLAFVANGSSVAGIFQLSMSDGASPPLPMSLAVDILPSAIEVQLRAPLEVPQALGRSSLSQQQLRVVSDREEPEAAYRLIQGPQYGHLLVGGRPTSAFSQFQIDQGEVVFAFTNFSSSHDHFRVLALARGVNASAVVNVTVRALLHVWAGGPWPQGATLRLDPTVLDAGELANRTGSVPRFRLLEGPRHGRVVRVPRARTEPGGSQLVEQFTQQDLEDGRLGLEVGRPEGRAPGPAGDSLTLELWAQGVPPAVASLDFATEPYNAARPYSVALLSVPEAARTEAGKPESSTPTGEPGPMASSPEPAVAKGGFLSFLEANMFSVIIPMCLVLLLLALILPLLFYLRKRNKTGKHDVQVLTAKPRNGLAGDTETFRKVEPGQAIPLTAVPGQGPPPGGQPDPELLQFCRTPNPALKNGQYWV

Binder | binding result [1] | also measured
2+1 IgG scFab, P329G LALA (anti-EGFR/anti-huCD3) (bispecific antibody, also called 2+1 IgG scFab (EGFR)) chain 1: QVQLVQSGAEVKKPGSSVKVSCKASGFTFTDYKIHWVRQAPGQGLEWMGYFNPNSGYSTYAQKFQGRVTITADKSTSTAYMELSSLRSEDTAVYYCARLSPGGYYVMDAWGQGTTVTVSSASTKGPSVFPLAPSSKSTSGGTAALGCLVKDYFPEPVTVSWNSGALTSGVHTFPAVLQSSGLYSLSSVVTVPSSSLGTQTYICNVNHKPSNTKVDKKVEPKSCDKTHTCPPCPAPEAAGGPSVFLFPPKPKDTLMISRTPEVTCVVVDVSHEDPEVKFNWYVDGVEVHNAKTKPREEQYNSTYRVVSVLTVLHQDWLNGKEYKCKVSNKALGAPIEKTISKAKGQPREPQVCTLPPSRDELTKNQVSLSCAVKGFYPSDIAVEWESNGQPENNYKTTPPVLDSDGSFFLVSKLTVDKSRWQQGNVFSCSVMHEALHNHYTQKSLSLSPGK chain 2: DIQMTQSPSSLSASVGDRVTITCRASQGINNYLNWYQQKPGKAPKRLIYNTNNLQTGVPSRFSGSGSGTEFTLTISSLQPEDFATYYCLQHNSFPTFGQGTKLEIKRTVAAPSVFIFPPSDEQLKSGTASVVCLLNNFYPREAKVQWKVDNALQSGNSQESVTEQDSKDSTYSLSSTLTLSKADYEKHKVYACEVTHQGLSSPVTKSFNRGEC chain 3: not shown | binds | –
1+1 IgG scFab (anti-EGFR/anti-huCD3) (bispecific antibody) chain 1: DIQMTQSPSSLSASVGDRVTITCRASQGINNYLNWYQQKPGKAPKRLIYNTNNLQTGVPSRFSGSGSGTEFTLTISSLQPEDFATYYCLQHNSFPTFGQGTKLEIKRTVAAPSVFIFPPSDEQLKSGTASVVCLLNNFYPREAKVQWKVDNALQSGNSQESVTEQDSKDSTYSLSSTLTLSKADYEKHKVYACEVTHQGLSSPVTKSFNRGEC chain 2: not shown chain 3: DKTHTCPPCPAPEAAGGPSVFLFPPKPKDTLMISRTPEVTCVVVDVSHEDPEVKFNWYVDGVEVHNAKTKPREEQYNSTYRVVSVLTVLHQDWLNGKEYKCKVSNKALGAPIEKTISKAKGQPREPQVCTLPPSRDELTKNQVSLSCAVKGFYPSDIAVEWESNGQPENNYKTTPPVLDSDGSFFLVSKLTVDKSRWQQGNVFSCSVMHEALHNHYTQKSLSLSPGK | binds | –
1+1 IgG scFab, one armed (anti-EGFR/anti-huCD3) (bispecific antibody) chain 1: not shown chain 2: QVQLVQSGAEVKKPGSSVKVSCKASGFTFTDYKIHWVRQAPGQGLEWMGYFNPNSGYSTYAQKFQGRVTITADKSTSTAYMELSSLRSEDTAVYYCARLSPGGYYVMDAWGQGTTVTVSSASTKGPSVFPLAPSSKSTSGGTAALGCLVKDYFPEPVTVSWNSGALTSGVHTFPAVLQSSGLYSLSSVVTVPSSSLGTQTYICNVNHKPSNTKVDKKVEPKSCDKTHTCPPCPAPEAAGGPSVFLFPPKPKDTLMISRTPEVTCVVVDVSHEDPEVKFNWYVDGVEVHNAKTKPREEQYNSTYRVVSVLTVLHQDWLNGKEYKCKVSNKALGAPIEKTISKAKGQPREPQVCTLPPSRDELTKNQVSLSCAVKGFYPSDIAVEWESNGQPENNYKTTPPVLDSDGSFFLVSKLTVDKSRWQQGNVFSCSVMHEALHNHYTQKSLSLSPGK chain 3: DIQMTQSPSSLSASVGDRVTITCRASQGINNYLNWYQQKPGKAPKRLIYNTNNLQTGVPSRFSGSGSGTEFTLTISSLQPEDFATYYCLQHNSFPTFGQGTKLEIKRTVAAPSVFIFPPSDEQLKSGTASVVCLLNNFYPREAKVQWKVDNALQSGNSQESVTEQDSKDSTYSLSSTLTLSKADYEKHKVYACEVTHQGLSSPVTKSFNRGEC | binds | –
1+1 IgG scFab, one armed inverted (anti-EGFR/anti-huCD3) (bispecific antibody) chain 1: not shown chain 2: not shown chain 3: EVQLVESGGGLVQPGGSLRLSCAASGYSFTGYTMNWVRQAPGKGLEWVALINPYKGVSTYNQKFKDRFTISVDKSKNTAYLQMNSLRAEDTAVYYCARSGYYGDSDWYFDVWGQGTLVTVSSASTKGPSVFPLAPSSKSTSGGTAALGCLVKDYFPEPVTVSWNSGALTSGVHTFPAVLQSSGLYSLSSVVTVPSSSLGTQTYICNVNHKPSNTKVDKKVEPKSCDKTHTCPPCPAPEAAGGPSVFLFPPKPKDTLMISRTPEVTCVVVDVSHEDPEVKFNWYVDGVEVHNAKTKPREEQYNSTYRVVSVLTVLHQDWLNGKEYKCKVSNKALGAPIEKTISKAKGQPREPQVCTLPPSRDELTKNQVSLSCAVKGFYPSDIAVEWESNGQPENNYKTTPPVLDSDGSFFLVSKLTVDKSRWQQGNVFSCSVMHEALHNHYTQKSLSLSPGK | binds | –
aVH TCB (Crossfab fragment with a CD3 binding moiety and two aVH moieties binding MCSP, P329G LALA) (bispecific antibody) light: SASYRKR heavy 1: HQYYTYPLFT heavy 2: QAVVTQEPSLTVSPGGTVTLTCGSSTGAVTTSNYANWVQEKPGQAFRGLIGGTNKRAPGTPARFSGSLLGGKAALTLSGAQPEDEAEYYCALWYSNLWVFGGGTKLTVLSSASTKGPSVFPLAPSSKSTSGGTAALGCLVKDYFPEPVTVSWNSGALTSGVHTFPAVLQSSGLYSLSSVVTVPSSSLGTQTYICNVNHKPSNTKVDKKVEPKSC | – | EC50 [pM] 24 h of T-cell mediated killing of MV-3 cells [2]: 9120 pM; EC50 [pM] 48 h of T-cell mediated killing of MV-3 cells [2]: 8970 pM
Darpin TCB (Crossfab fragment with a CD3 binding moiety and two Darpin moieties binding HER2, P329G LALA) (bispecific antibody) light: EVQLVESGGGLVQPGGSLRLSCAASGFNIKDTYIGWVRRAPGKGTELVARIYPTNGYTRYADSVKGRFTISADTSKNTAYLQMNSLRAEDTAVYYCARTSWGGWLSGDYWGQGTLVTVSSDKTHTCPPCPAPEAAGGPSVFLFPPKPKDTLMISRTPEVTCVVVDVSHEDPEVKFNWYVDGVEVHNAKTKPREEQYNSTYRVVSVLTVLHQDWLNGKEYKCKVSNKALGAPIEKTISKAKGQPREPQVCTLPPSRDELTKNQVSLSCAVKGFYPSDIAVEWESNGQPENNYKTTPPVLDSDGSFFLVSKLTVDKSRWQQGNVFSCSVMHEALHNHYTQKSLSLSPGK heavy 1: not shown heavy 2: QAVVTQEPSLTVSPGGTVTLTCGSSTGAVTTSNYANWVQEKPGQAFRGLIGGTNKRAPGTPARFSGSLLGGKAALTLSGAQPEDEAEYYCALWYSNLWVFGGGTKLTVLSSASTKGPSVFPLAPSSKSTSGGTAALGCLVKDYFPEPVTVSWNSGALTSGVHTFPAVLQSSGLYSLSSVVTVPSSSLGTQTYICNVNHKPSNTKVDKKVEPKSC | – | EC50 [pM] 24 h of T-cell mediated killing of KPL-4 cells (Her2 on KPL-4 cells): 376 pM; EC50 [pM] 48 h of T-cell mediated killing of KPL-4 cells (Her2 on KPL-4 cells): 235 pM
